We go through 1 substance from PMC4408062.

The assay concerns the target Recombinant human PCSK9 (proprotein convertase subtilisin/kexin type 9) (human) (UniProt Q8NBP7).
UniProt Q8NBP7, sequence (Q8NBP7 31-692): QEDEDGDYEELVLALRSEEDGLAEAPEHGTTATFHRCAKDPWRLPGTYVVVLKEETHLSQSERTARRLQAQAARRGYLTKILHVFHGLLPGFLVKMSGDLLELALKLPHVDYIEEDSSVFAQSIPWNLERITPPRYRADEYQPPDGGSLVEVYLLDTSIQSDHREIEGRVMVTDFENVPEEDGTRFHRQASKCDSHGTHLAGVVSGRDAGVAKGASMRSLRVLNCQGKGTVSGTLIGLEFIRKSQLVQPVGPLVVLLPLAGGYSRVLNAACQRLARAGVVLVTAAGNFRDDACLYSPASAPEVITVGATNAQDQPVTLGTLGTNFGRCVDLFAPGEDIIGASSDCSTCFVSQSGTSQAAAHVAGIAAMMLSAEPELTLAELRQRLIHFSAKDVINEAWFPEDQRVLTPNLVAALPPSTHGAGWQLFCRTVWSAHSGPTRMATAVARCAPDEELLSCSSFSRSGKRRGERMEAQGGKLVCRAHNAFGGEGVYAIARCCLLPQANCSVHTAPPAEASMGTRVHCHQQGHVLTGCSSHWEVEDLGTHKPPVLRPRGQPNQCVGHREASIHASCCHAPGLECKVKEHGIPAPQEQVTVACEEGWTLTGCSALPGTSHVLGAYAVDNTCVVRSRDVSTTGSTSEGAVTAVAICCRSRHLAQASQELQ

As for LDL (low density lipoprotein particle), the internalisation of PCSK9-488/J16 complexes in APLP2 siRNA treated HepG2 cells with 2.5 μg/ml LDL worked out at 2.5 fold.
